* marks the point of attachment. C18 diacid = O=C(O)CCCCCCCCCCCCCCCCC(=O)*
T1: human amylin 3(a) receptor (human calcitonin receptor co-expressed with RAMP-3) (human, UniProt P30988 25-474; O60896 24-148, limits assumed)
T1 sequence (looked up) 1: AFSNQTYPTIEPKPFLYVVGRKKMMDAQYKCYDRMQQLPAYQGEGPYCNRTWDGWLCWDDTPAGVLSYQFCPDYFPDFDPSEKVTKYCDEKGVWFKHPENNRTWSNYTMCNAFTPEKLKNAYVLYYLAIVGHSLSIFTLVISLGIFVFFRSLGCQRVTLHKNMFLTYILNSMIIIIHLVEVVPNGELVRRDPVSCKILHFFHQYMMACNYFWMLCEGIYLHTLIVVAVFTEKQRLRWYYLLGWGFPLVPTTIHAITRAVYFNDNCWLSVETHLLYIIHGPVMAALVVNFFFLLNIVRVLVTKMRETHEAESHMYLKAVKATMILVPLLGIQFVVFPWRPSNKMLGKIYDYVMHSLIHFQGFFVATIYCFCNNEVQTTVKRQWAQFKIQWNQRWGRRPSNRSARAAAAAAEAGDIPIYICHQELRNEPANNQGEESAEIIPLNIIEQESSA
T1 sequence (looked up) 2: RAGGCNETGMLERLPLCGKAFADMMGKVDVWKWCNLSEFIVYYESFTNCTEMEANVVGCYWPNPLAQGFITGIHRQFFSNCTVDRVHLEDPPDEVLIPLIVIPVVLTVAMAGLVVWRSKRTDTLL

T2: human calcitonin receptor (human, UniProt P30988 25-474)
T2 sequence (looked up): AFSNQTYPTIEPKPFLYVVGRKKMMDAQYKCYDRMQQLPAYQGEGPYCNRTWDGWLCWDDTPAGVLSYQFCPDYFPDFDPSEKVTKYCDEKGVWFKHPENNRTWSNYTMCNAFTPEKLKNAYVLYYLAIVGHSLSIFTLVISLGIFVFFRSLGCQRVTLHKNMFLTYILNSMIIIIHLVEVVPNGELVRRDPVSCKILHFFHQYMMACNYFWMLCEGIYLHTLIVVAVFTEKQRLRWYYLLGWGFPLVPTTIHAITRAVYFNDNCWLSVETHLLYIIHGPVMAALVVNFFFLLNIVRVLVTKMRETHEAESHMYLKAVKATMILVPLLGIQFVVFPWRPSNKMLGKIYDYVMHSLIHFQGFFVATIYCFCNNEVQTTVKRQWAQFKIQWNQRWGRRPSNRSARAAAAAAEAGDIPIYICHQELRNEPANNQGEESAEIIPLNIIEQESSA


Legend:
[1] = molecular target: T1, human amylin 3(a) receptor (human …); assay: cell-based or functional assay
[2] = molecular target: T2, human calcitonin receptor; assay: cell-based or functional assay

| hAmylin-R funct. EC50 (pM) [1] [pM] | hCTR funct. EC50 (pM) [2] [pM] | Binder |
| --- | --- | --- |
| 10 | 7 | {C18 diacid}-EAPELSTAVLGRLSAELHELATLPRTETGPESP-NH2 (SMILES CC(C)C[C@H](NC(=O)[C@H](CCC(=O)O)NC(=O)[C@H](Cc1c[nH]cn1)NC(=O)[C@H](CC(C)C)NC(=O)[C@H](CCC(=O)O)NC(=O)[C@H](C)NC(=O)[C@H](CO)NC(=O)[C@H](CC(C)C)NC(=O)[C@H](CCCNC(=N)N)NC(=O)CNC(=O)[C@H](CC(C)C)NC(=O)[C@@H](NC(=O)[C@H](C)NC(=O)[C@@H](NC(=O)[C@H](CO)NC(=O)[C@H](CC(C)C)NC(=O)[C@H](CCC(=O)O)NC(=O)[C@@H]1CCCN1C(=O)[C@H](C)NC(=O)[C@H](CCC(=O)O)NC(=O)CCCCCCCCCCCCCCCCC(=O)O)[C@@H](C)O)C(C)C)C(=O)N[C@@H](C)C(=O)N[C@H](C(=O)N[C@@H](CC(C)C)C(=O)N1CCC[C@H]1C(=O)N[C@@H](CCCNC(=N)N)C(=O)N[C@H](C(=O)N[C@@H](CCC(=O)O)C(=O)N[C@H](C(=O)NCC(=O)N1CCC[C@H]1C(=O)N[C@@H](CCC(=O)O)C(=O)N[C@@H](CO)C(=O)N1CCC[C@H]1C(N)=O)[C@@H](C)O)[C@@H](C)O)[C@@H](C)O) [[N-terminal(C18 diacid), 3P, 9V]mimylin] |
| 20 | 14 | {C18 diacid}-EASEVSTAVLGRLSAELHELATLPRTETGPESP-NH2 (SMILES CC(C)C[C@H](NC(=O)[C@H](CCC(=O)O)NC(=O)[C@H](Cc1c[nH]cn1)NC(=O)[C@H](CC(C)C)NC(=O)[C@H](CCC(=O)O)NC(=O)[C@H](C)NC(=O)[C@H](CO)NC(=O)[C@H](CC(C)C)NC(=O)[C@H](CCCNC(=N)N)NC(=O)CNC(=O)[C@H](CC(C)C)NC(=O)[C@@H](NC(=O)[C@H](C)NC(=O)[C@@H](NC(=O)[C@H](CO)NC(=O)[C@@H](NC(=O)[C@H](CCC(=O)O)NC(=O)[C@H](CO)NC(=O)[C@H](C)NC(=O)[C@H](CCC(=O)O)NC(=O)CCCCCCCCCCCCCCCCC(=O)O)C(C)C)[C@@H](C)O)C(C)C)C(=O)N[C@@H](C)C(=O)N[C@H](C(=O)N[C@@H](CC(C)C)C(=O)N1CCC[C@H]1C(=O)N[C@@H](CCCNC(=N)N)C(=O)N[C@H](C(=O)N[C@@H](CCC(=O)O)C(=O)N[C@H](C(=O)NCC(=O)N1CCC[C@H]1C(=O)N[C@@H](CCC(=O)O)C(=O)N[C@@H](CO)C(=O)N1CCC[C@H]1C(N)=O)[C@@H](C)O)[C@@H](C)O)[C@@H](C)O) [[N-terminal(C18 diacid), 5V, 9V]mimylin] |
| 7 | 6 | {C18 diacid}-EASELSTAVIGRLSAELHELATLPRTETGPESP-NH2 (SMILES CC[C@H](C)[C@H](NC(=O)[C@@H](NC(=O)[C@H](C)NC(=O)[C@@H](NC(=O)[C@H](CO)NC(=O)[C@H](CC(C)C)NC(=O)[C@H](CCC(=O)O)NC(=O)[C@H](CO)NC(=O)[C@H](C)NC(=O)[C@H](CCC(=O)O)NC(=O)CCCCCCCCCCCCCCCCC(=O)O)[C@@H](C)O)C(C)C)C(=O)NCC(=O)N[C@@H](CCCNC(=N)N)C(=O)N[C@@H](CC(C)C)C(=O)N[C@@H](CO)C(=O)N[C@@H](C)C(=O)N[C@@H](CCC(=O)O)C(=O)N[C@@H](CC(C)C)C(=O)N[C@@H](Cc1c[nH]cn1)C(=O)N[C@@H](CCC(=O)O)C(=O)N[C@@H](CC(C)C)C(=O)N[C@@H](C)C(=O)N[C@H](C(=O)N[C@@H](CC(C)C)C(=O)N1CCC[C@H]1C(=O)N[C@@H](CCCNC(=N)N)C(=O)N[C@H](C(=O)N[C@@H](CCC(=O)O)C(=O)N[C@H](C(=O)NCC(=O)N1CCC[C@H]1C(=O)N[C@@H](CCC(=O)O)C(=O)N[C@@H](CO)C(=O)N1CCC[C@H]1C(N)=O)[C@@H](C)O)[C@@H](C)O)[C@@H](C)O) [[N-terminal(C18 diacid), 9V, 10I]mimylin] |
| 8 | 5 | {C18 diacid}-EASELSTAALGRLSAELHELATLPRTETGPESP-NH2 (SMILES CC(C)C[C@H](NC(=O)[C@H](C)NC(=O)[C@H](C)NC(=O)[C@@H](NC(=O)[C@H](CO)NC(=O)[C@H](CC(C)C)NC(=O)[C@H](CCC(=O)O)NC(=O)[C@H](CO)NC(=O)[C@H](C)NC(=O)[C@H](CCC(=O)O)NC(=O)CCCCCCCCCCCCCCCCC(=O)O)[C@@H](C)O)C(=O)NCC(=O)N[C@@H](CCCNC(=N)N)C(=O)N[C@@H](CC(C)C)C(=O)N[C@@H](CO)C(=O)N[C@@H](C)C(=O)N[C@@H](CCC(=O)O)C(=O)N[C@@H](CC(C)C)C(=O)N[C@@H](Cc1c[nH]cn1)C(=O)N[C@@H](CCC(=O)O)C(=O)N[C@@H](CC(C)C)C(=O)N[C@@H](C)C(=O)N[C@H](C(=O)N[C@@H](CC(C)C)C(=O)N1CCC[C@H]1C(=O)N[C@@H](CCCNC(=N)N)C(=O)N[C@H](C(=O)N[C@@H](CCC(=O)O)C(=O)N[C@H](C(=O)NCC(=O)N1CCC[C@H]1C(=O)N[C@@H](CCC(=O)O)C(=O)N[C@@H](CO)C(=O)N1CCC[C@H]1C(N)=O)[C@@H](C)O)[C@@H](C)O)[C@@H](C)O) [[N-terminal(C18 diacid)]mimylin] |
| 10 | 7 | {C18 diacid}-EASEISTAILGRLSAELHELATLPRTETGPESP-NH2 (SMILES CC[C@H](C)[C@H](NC(=O)[C@H](C)NC(=O)[C@@H](NC(=O)[C@H](CO)NC(=O)[C@@H](NC(=O)[C@H](CCC(=O)O)NC(=O)[C@H](CO)NC(=O)[C@H](C)NC(=O)[C@H](CCC(=O)O)NC(=O)CCCCCCCCCCCCCCCCC(=O)O)[C@@H](C)CC)[C@@H](C)O)C(=O)N[C@@H](CC(C)C)C(=O)NCC(=O)N[C@@H](CCCNC(=N)N)C(=O)N[C@@H](CC(C)C)C(=O)N[C@@H](CO)C(=O)N[C@@H](C)C(=O)N[C@@H](CCC(=O)O)C(=O)N[C@@H](CC(C)C)C(=O)N[C@@H](Cc1c[nH]cn1)C(=O)N[C@@H](CCC(=O)O)C(=O)N[C@@H](CC(C)C)C(=O)N[C@@H](C)C(=O)N[C@H](C(=O)N[C@@H](CC(C)C)C(=O)N1CCC[C@H]1C(=O)N[C@@H](CCCNC(=N)N)C(=O)N[C@H](C(=O)N[C@@H](CCC(=O)O)C(=O)N[C@H](C(=O)NCC(=O)N1CCC[C@H]1C(=O)N[C@@H](CCC(=O)O)C(=O)N[C@@H](CO)C(=O)N1CCC[C@H]1C(N)=O)[C@@H](C)O)[C@@H](C)O)[C@@H](C)O) [[N-terminal(C18 diacid), 5I, 9I]mimylin] |
| 8 | 7 | {C18 diacid}-EPSELSTAVLGRLSAELHELATLPRTETGPESP-NH2 (SMILES CC(C)C[C@H](NC(=O)[C@H](CCC(=O)O)NC(=O)[C@H](Cc1c[nH]cn1)NC(=O)[C@H](CC(C)C)NC(=O)[C@H](CCC(=O)O)NC(=O)[C@H](C)NC(=O)[C@H](CO)NC(=O)[C@H](CC(C)C)NC(=O)[C@H](CCCNC(=N)N)NC(=O)CNC(=O)[C@H](CC(C)C)NC(=O)[C@@H](NC(=O)[C@H](C)NC(=O)[C@@H](NC(=O)[C@H](CO)NC(=O)[C@H](CC(C)C)NC(=O)[C@H](CCC(=O)O)NC(=O)[C@H](CO)NC(=O)[C@@H]1CCCN1C(=O)[C@H](CCC(=O)O)NC(=O)CCCCCCCCCCCCCCCCC(=O)O)[C@@H](C)O)C(C)C)C(=O)N[C@@H](C)C(=O)N[C@H](C(=O)N[C@@H](CC(C)C)C(=O)N1CCC[C@H]1C(=O)N[C@@H](CCCNC(=N)N)C(=O)N[C@H](C(=O)N[C@@H](CCC(=O)O)C(=O)N[C@H](C(=O)NCC(=O)N1CCC[C@H]1C(=O)N[C@@H](CCC(=O)O)C(=O)N[C@@H](CO)C(=O)N1CCC[C@H]1C(N)=O)[C@@H](C)O)[C@@H](C)O)[C@@H](C)O) [[N-terminal(C18 diacid), 2P, 9V]mimylin] |
| 8 | 4 | {C18 diacid}-EASELSTALAGRLSAELHELATLPRTETGPESP-NH2 (SMILES CC(C)C[C@H](NC(=O)[C@H](C)NC(=O)[C@@H](NC(=O)[C@H](CO)NC(=O)[C@H](CC(C)C)NC(=O)[C@H](CCC(=O)O)NC(=O)[C@H](CO)NC(=O)[C@H](C)NC(=O)[C@H](CCC(=O)O)NC(=O)CCCCCCCCCCCCCCCCC(=O)O)[C@@H](C)O)C(=O)N[C@@H](C)C(=O)NCC(=O)N[C@@H](CCCNC(=N)N)C(=O)N[C@@H](CC(C)C)C(=O)N[C@@H](CO)C(=O)N[C@@H](C)C(=O)N[C@@H](CCC(=O)O)C(=O)N[C@@H](CC(C)C)C(=O)N[C@@H](Cc1c[nH]cn1)C(=O)N[C@@H](CCC(=O)O)C(=O)N[C@@H](CC(C)C)C(=O)N[C@@H](C)C(=O)N[C@H](C(=O)N[C@@H](CC(C)C)C(=O)N1CCC[C@H]1C(=O)N[C@@H](CCCNC(=N)N)C(=O)N[C@H](C(=O)N[C@@H](CCC(=O)O)C(=O)N[C@H](C(=O)NCC(=O)N1CCC[C@H]1C(=O)N[C@@H](CCC(=O)O)C(=O)N[C@@H](CO)C(=O)N1CCC[C@H]1C(N)=O)[C@@H](C)O)[C@@H](C)O)[C@@H](C)O) [[N-terminal(C18 diacid), 9L, 10A]mimylin] |

— US20160272683A1 (Novo Nordisk, published 2016)
